In assay [1] the test system is cell surface HSP90 on DC2.4 cells. Briefly: Internalization of cell surface HSP90 by the 6H8 antibody. Type of assay: cell-based. As to the method: The behavior of the 6H8-HSP90 complex after being recognized by the 6H8 antibody was examined as described below. First, DC2.4 cells were incubated in the presence of biotinylated 6H8 (1 μg/ml) on ice for 30 minutes and washed. Next, the cells were incubated at 37° C. with 5% CO2 for 0, 10, 20, 30, or 60 minutes. After cooling on ice, the cells were stained with PE-Cy5-streptavidin and analyzed by FACS. The results are shown in the left panel of FIG. 4B. Shown in the right panel are bar graphs for the MFI of each group.
Furthermore, immunostaining was performed to compare the behavior of HSP90 with the behaviors of the MHC class 1 molecule H-2K^b and the MHC class II molecule I-A^b. First, DC2.4 cells were incubated in the presence of the biotinylated 6H8 antibody and the FITC-labeled anti-H-2K^b antibody or anti-I-A^b antibody (Pharmingen, the antibody was used at a 100-fold dilution) in the same manner as the above. The cells were stained with PE-Cy5-streptavidin, returned to room temperature and incubated for 20 minutes, and then examined using a confocal microscope. […] It was confirmed that cell surface HSP90 was internalized by the 6H8 antibody.

For assay [2], the system named is GM-CSF-dependent bone marrow-derived dendritic cells. Briefly: Cytokine production from bone marrow-derived dendritic cells on immobilized 6H8 antibody. It counts as cell-based. The settings on record: antibody immobilized on 96-well plate, 12 hours. As to the method:
(1) […] of the 6H8 antibody diluted in PBS (10 mg/ml) was added to a 96-well flat plate (Corning Incorporated, product number 3596), and the plate was treated at 4° C. overnight. (2) The plate was washed twice with […] of PBS to remove the excess 6H8 antibody. (3) On day 5 after induction, GM-CSF-dependent bone marrow-derived dendritic cells were added to the plate from (2) at 1×10^5/well and cultured in an incubator at 37° C. with 5% CO2. (4) 12 hours after the start of cultivation, the supernatant was recovered; the amounts of cytokines and chemokines in the supernatant were determined according to a standard protocol using the Bio-Plex suspension array system with 23-Plex Panel (Bio-rad, 171-F11241).

The test system of assay [3] is OT-I CD8+ T cells. Briefly: In vitro cross-presentation assay, DC2.4 cells with OT-I CD8+ T cells, IFNγ. It counts as cell-based, mouse. The protocol:
A cross-presentation assay was performed using each fraction as an antigen. DC2.4 cells were pulsed with 5 μg/ml (30 μg/ml, only for the fraction 33) of each fraction or 1 mg/ml of free OVA for 3 hours. […]
(§1) Next, DC2.4 cells were pulsed with a series of doses of 6H8-OVA (fractions 15 to 19) and free OVA (fraction 33) and incubated along with OT-I CD8^+ T cells and OT-II CD4^+ T cells [splenocytes of an OT-II mouse were recovered, and CD11b-positive cells were removed according to a standard protocol using BD IMag anti mouse CD11b magnetic particles DM (BD Biosciences Pharmingen, 558013); next, CD4-positive cells were purified according to a standard protocol using BD IMag anti mouse CD4 particles DM (BD Biosciences Pharmingen, 551539); the cells obtained were used as the OT-II CD4^+ T cells], and the amount of IFNγ secreted from T cells was measured, whereby the cross-presentation potential of 6H8-OVA was evaluated.

The next assay deals with OT-II CD4+ T cells. The assay can be described thus: In vitro antigen presentation assay, DC2.4 cells with OT-II CD4+ T cells, IFNγ. It counts as cell-based, mouse. The settings on record: DC2.4 pulsed with series of doses, IFNγ secreted. The protocol: as §1
Assay [4] concerns MO5 (OVA-expressing melanoma). Briefly: Pulmonary metastasis model with MO5 (OVA-expressing melanoma). It counts as in vivo, mouse. The settings on record: MO5 i.v.; 4 days later 6H8-OVA (10 mg) i.v.; counted 15 days later. The protocol:
The pulmonary metastasis suppressing effect of 6H8-OVA was examined in a pulmonary metastasis model that is generated by transvenously administering MO5 (OVA-expressing melanoma) to a mouse. MO5 was administered to the mouse from a vein; 4 days later, PBS or 6H8-OVA (10 mg) was administered from a vein. 15 days later, pulmonary metastatic spots were counted.

The subject of assay [5] is OT-I CD8+ T cells. Briefly: In vivo differentiation of transferred OT-I CD8+ T cells into memory T cells (CD44). Details: species or system mouse. The settings on record: 3 μg tail vein, 96 hours, compared with group that did not receive 6H8-OVA. The protocol:
(1) 2×10^6 CD8^+ cells of an OT-I/CD45.1 mouse were transferred to a C57BL/6 mouse from the tail vein, with 3 μg of 6H8-OVA or PBS administered from the tail vein concurrently. (2) 96 hours later, the mouse spleen was recovered, and 2×10^6 splenocytes were stained with the following antibodies in a 96-well round-bottomed plate for 30 minutes (while cooling on ice).
PE-anti-mouse/human CD44 (eBioscience: Cat No. 12-0041), concentration: 1 μg/ml, amount used: 100 μl.
Biotin-anti-CD45.1 (eBioscience: 13-0453), concentration: 2.5 μg/ml, amount used: 100 μl.
(3) After being washed twice with PBS, the cells were stained with the following antibody for 30 minutes (while cooling on ice).
Streptavidin-APC (BioLegend: 405207), concentration: 0.2 μg/ml, amount used: 100 μl.
(4) After being washed twice with Annexin-binding buffer, the cells were stained with FITC-Annexin V using the Annexin V FITC reagent for 10 minutes (while cooling on ice).
(5) Fluorescence was determined using FACS Canto (BD).

B1: 6H8: anti-HSP90 monoclonal antibody produced by hybridoma FERM BP-11222; epitope … (antibody)
VH: QVQLQQSGPELVKPGASVRISCKASGYTFTSYYIHWVKQRPGQGLEWIGWIYPGNVNTKYNEKFKGKATLTADKSSSTAYMQLSSLTSEDSAVYFCARYGNYPFAYWGQGTLVTVSAAKTTAPSVYPLAPVCGDTTGSSVTLGCLVKGYF
VL: DVVMTQTPLSLPVSLGDQASISCRSSQSLVHSNGNTYLHWYLQKPGQSPKLLIYKVSNRFSGVPDRFSGSGSGTDFTLKISRVEAEDLGVYFCSQSTHVPPTFGGGTKLEIKRADAAPTVSIFPPSSEQLTSGGASVVCFLNNFYPKDINVKWKIDGS
B1: the “internalization of cell surface HSP90 (confocal microscope)” value in assay [1] (DC2.4, 20 minutes at room temperature) was “internalized”. The “time for the 6H8-HSP90 complex to disappear from the cell surface (enter into cells)” value in assay [1] (DC2.4, biotinylated 6H8 1 μg/ml, 37° C.) is “about 10 minutes”. Also, the “production of IL-1α, IL-1β, IL-2, IL-4, IL-9, IL-10, IL-12(p40), IL-12(p70), IL-13, G-CSF, GM-CSF, KC, MCP-1, MIP-1α, MIP-1β, RANTES” value in assay [2] is “induced”.

B2: 6H8-OVA: high molecular weight conjugate of the 6H8 antibody and maleimide-activated OVA (conjugate)
VH: QVQLQQSGPELVKPGASVRISCKASGYTFTSYYIHWVKQRPGQGLEWIGWIYPGNVNTKYNEKFKGKATLTADKSSSTAYMQLSSLTSEDSAVYFCARYGNYPFAYWGQGTLVTVSAAKTTAPSVYPLAPVCGDTTGSSVTLGCLVKGYF
VL: DVVMTQTPLSLPVSLGDQASISCRSSQSLVHSNGNTYLHWYLQKPGQSPKLLIYKVSNRFSGVPDRFSGSGSGTDFTLKISRVEAEDLGVYFCSQSTHVPPTFGGGTKLEIKRADAAPTVSIFPPSSEQLTSGGASVVCFLNNFYPKDINVKWKIDGS
chain: GSIGAASMEFCFDVFKELKVHHANENIFYCPIAIMSALAMVYLGAKDSTRTQINKVVRFDKLPGFGDSIEAQCGTSVNVHSSLRDILNQITKPNDVYSFSLASRLYAEERYPILPEYLQCVKELYRGGLEPINFQTAADQARELINSWVESQTNGIIRNVLQPSSVDSQTAMVLVNAIVFKGLWEKAFKDEDTQAMPFRVTEQESKPVQMMYQIGLFRVASMASEKMKILELPFASGTMSMLVLLPDEVSGLEQLESIINFEKLTEWTSSNVMEERKIKVYLPRMKMEEKYNLTSVLMAMGITDVFSSSANLSGISSAESLKISQAVHAAHAEINEAGREVVGSAEAGVDAASVSEEFRADHPFLFCIKHIATNAVLFFGRCVSP
For the molecule B2, the “induction of IFNγ production by OT-I CD8+ T cells” value with OT-I CD8+ T cells [3] (DC2.4 pulsed 3 hours with fractions 15 to 21, less than 5 μg/ml protein) was “efficiently induced IFNγ production by CD8^+ T cells”. Moreover, in the assay with OT-I CD8+ T cells [3] (DC2.4 pulsed with series of doses, IFNγ secreted), the “effectiveness on OT-I CD8+ T cells relative to free OVA” value is “at least 100 times”. In addition, the “antigen presentation to OT-II CD4+ T cells” value with OT-II CD4+ T cells is listed as “weak, although it was better than free OVA”. In addition, the pulmonary metastatic spots result in assay [4] was “almost no metastatic spots”. The “expression level of CD44 on transferred OT-I CD8+ T cells” value in the assay on OT-I CD8+ T cells [5] is “increased”.

The values above are taken from US20110280881A1, “NOVEL ANTI-HSP90 MONOCLONAL ANTIBODY” (RIKEN, priority 2010, published 2011).
